Two sequences from article PMC6265350 can be followed below.

The target of one series is T1, MtrA~P (UniProt P9WGM7).
T1 sequence: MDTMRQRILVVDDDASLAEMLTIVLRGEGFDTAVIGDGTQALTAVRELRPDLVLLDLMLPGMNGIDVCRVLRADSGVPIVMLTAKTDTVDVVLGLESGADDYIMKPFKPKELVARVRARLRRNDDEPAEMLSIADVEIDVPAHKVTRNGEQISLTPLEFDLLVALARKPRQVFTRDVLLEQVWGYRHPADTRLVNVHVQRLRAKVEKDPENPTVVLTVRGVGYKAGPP
Nature of the series: EMSA. The following applies: 50 mM Tris-HCl pH 7.5, 50 mM NaCl, 10 mM MgCl2, 10 mM CaCl2, poly dI/dC and sheared salmon sperm DNA (1 ug), 37 C 15 min; 200 fmol DNA, 1-10 uM protein; 5% …. (A gel shift assay detects complexes by their altered migration in electrophoresis.)

A further series has as its target T2, MtrA (unphosphorylated) (UniProt P9WGM7).
T2 sequence: T1 sequence
Kind of series: EMSA. The following applies: 50 mM Tris-HCl pH 7.5, 50 mM NaCl, 10 mM MgCl2, 10 mM CaCl2, […].

Consider “CTGTGCAGAGTAGGTGATCGGCGGCCCGACCGCGAGGAGCCGCGCTGTGACTGGCGGGACGAAAGTTACAGATGAAGATATTTGCGTCCGGTGTCGGTGAGCACGCTGCGCAGGATGGTTTCGATGGTGTCGAACTCGGGCTGTCCGCTAATCAGCGGGGGAGCCACCTGGACGACGGGGTCCCCGCGGTCGTCGGTG (double strand) [PdacB1]”, for which the binding result in the series with MtrA~P is given as “binds”.
For “TCGACTCAGATCTCCTAGGGCTCAACTCGGAGGGACAGCGCAGGTCAACGCCAACGACACCACAAGCATCATTTGCACCGTACGTCACATCTGACGCTATGGAAACGTAAGTCACAAACTGCCCCCGGTACGTGCGACTAATGTGACCCAACGGTGACCTCGCGCGTTTGCCGCAAACAACCGCCCGGTTAGCGCGGCAA (double strand) [PripA]”, the binding entry with MtrA (unphosphorylated) and with MtrA~P was “binds” throughout.
